Values joined by “and” are separate entries in the source; they are usually repeats but may differ in a detail not shown here. Identical values can stand only once.
B1: humanized anti-PSMAxCD3 BsAb BC244 (H3L1) (bispecific antibody, human IgG1, kappa, N297A)
light: DIQLTQSPSFLSASVGDRVTITCRASQDVGTALDWYQQKPGKAPKLLIYWASTLHSGVPSRFSGSGSGTEFTLTISSLQPEDFATYYCQQYNSYPLTFGQGTKLEIKRTVAAPSVFIFPPSDEQLKSGTASVVCLLNNFYPREAKVQWKVDNALQSGNSQESVTEQDSKDSTYSLSSTLTLSKADYEKHKVYACEVTHQGLSSPVTKSFNRGECTSGGGGSGGGGSGGGGSQVQLVQSGGGVVQPGRSLRLSCKASGYTFTRYTMHWVRQAPGKCLEWIGYINPSRGYTNYNQKFKDRFTISRDNSKNTAFLQMDSLRPEDTGVYFCARYYDDHYSLDYWGQGTPVTVSSGGGGSGGGGSGGGGSGGGGSGGGGSGGGGSDIQMTQSPSSLSASVGDRVTITCSASSSVSYMNWYQQTPGKAPKRWIYDTSKLASGVPSRFSGSGSGTDYTFTISSLQPEDIATYYCQQWSSNPFTFGCGTKLQITR
heavy: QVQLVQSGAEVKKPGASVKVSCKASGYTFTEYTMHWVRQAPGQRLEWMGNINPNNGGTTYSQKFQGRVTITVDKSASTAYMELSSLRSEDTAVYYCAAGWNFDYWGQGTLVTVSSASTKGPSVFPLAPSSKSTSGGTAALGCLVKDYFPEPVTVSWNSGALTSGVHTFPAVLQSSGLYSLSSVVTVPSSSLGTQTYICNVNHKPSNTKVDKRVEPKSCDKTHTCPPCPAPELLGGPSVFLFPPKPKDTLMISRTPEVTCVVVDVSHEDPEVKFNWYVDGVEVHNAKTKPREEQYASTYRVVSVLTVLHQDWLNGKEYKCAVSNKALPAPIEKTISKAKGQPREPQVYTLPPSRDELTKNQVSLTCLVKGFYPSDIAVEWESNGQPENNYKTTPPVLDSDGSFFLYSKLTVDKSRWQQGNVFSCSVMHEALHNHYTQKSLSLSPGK
notes: IgG(L)-scFv format, J591_VL-1 + J591_VH-3; also called PSMA-BsAb
B2: 10J5-chimeric J591 (antibody, V domains shown)
VH: EVQLQQSGPELVKPGTSVRISCKTSGYTFTEYTIHWVKQSHGKSLEWIGNINPNNGGTTYNQKFEDKATLTVDKSSSTAYMELRSLTSEDSAVYYCAAGWNFDYWGQGTTLTVSS
VL: DIVMTQSHKFMSTSVGDRVSIICKASQDVGTAVDWYQQKPGQSPKLLIYWASTRHTGVPDRFTGSGSGTDFTLTITNVQSEDLADYFCQQYNSYPLTFGAGTMLDLKR
notes: also called J591 chimeric antibody
B3: anti-PSMAxhuC825 clone BC192 (PSMA LALA) (bispecific antibody, human IgG1, kappa, L234A L235A)
light: DIQLTQSPSFLSASVGDRVTITCRASQDVGTALDWYQQKPGKAPKLLIYWASTLHSGVPSRFSGSGSGTEFTLTISSLQPEDFATYYCQQYNSYPLTFGQGTKLEIKRTVAAPSVFIFPPSDEQLKSGTASVVCLLNNFYPREAKVQWKVDNALQSGNSQESVTEQDSKDSTYSLSSTLTLSKADYEKHKVYACEVTHQGLSSPVTKSFNRGECTSGGGGSGGGGSGGGGSHVQLVESGGGLVQPGGSLRLSCAASGFSLTDYGVHWVRQAPGKGLEWLGVIWSGGGTAYNTALISRFTISRDNSKNTLYLQMNSLRAEDTAVYYCARRGSYPYNYFDAWGCGTLVTVSSGGGGSGGGGSGGGGSGGGGSGGGGSGGGGSQAVVTQEPSLTVSPGGTVTLTCGSSTGAVTASNYANWVQQKPGQCPRGLIGGHNNRPPGVPARFSGSLLGGKAALTLLGAQPEDEAEYYCALWYSDHWVIGGGTKLTVLG
heavy: not shown
B4: anti-PSMAxhuC825 clone BC193 (PSMA K322) (bispecific antibody)
light: B3 light
heavy: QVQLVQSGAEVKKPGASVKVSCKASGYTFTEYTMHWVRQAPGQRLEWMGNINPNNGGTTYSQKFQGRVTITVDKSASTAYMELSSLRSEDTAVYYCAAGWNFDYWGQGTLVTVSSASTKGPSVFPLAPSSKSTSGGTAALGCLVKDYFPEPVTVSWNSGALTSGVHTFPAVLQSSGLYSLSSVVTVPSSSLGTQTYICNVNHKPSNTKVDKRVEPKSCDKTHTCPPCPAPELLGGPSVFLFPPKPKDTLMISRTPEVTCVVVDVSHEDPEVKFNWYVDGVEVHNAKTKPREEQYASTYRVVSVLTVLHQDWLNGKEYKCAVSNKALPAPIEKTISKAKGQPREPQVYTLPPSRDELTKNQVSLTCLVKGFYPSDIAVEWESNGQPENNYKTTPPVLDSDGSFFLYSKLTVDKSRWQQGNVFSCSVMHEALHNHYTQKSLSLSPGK

Assays:
[1] = target: T1, cynomolgus PSMA (ACRO) (cynomolgus, UniProt A0A2K5VNZ0 44-750); test: SPR Biacore, immobilised cynomolgus PSMA, 37 C, 1:1 fit
T1 construct: Immobilised on the Biacore chip
Description: (§1) PSMA-BsAb Biacore Settings. Human PSMA antigen was immobilized directly on Fc2 at 3000 RU, and cynomolgus PSMA (ACRO) on Fc4 at 3000 RU (Blank on Fc1 and Fc3 as controls). Abs were run through the system at 37° C., at concentrations of 250 and 500 nM, with association time 1 min, dissociation time 15 min. Regeneration was performed at 30 mM NaOH. All data were fitted with 1:1 model.

[2] = target: PSMA on PSMA(+) canine osteosarcoma cell lines (D-17, DSN, DAN, DSDh) (canine, UniProt I4IY07 29-779); test: cell-based or functional assay
[3] = target: PSMA on PSMA(+) human prostate cancer cell lines (LNCaP-AR, PC3-PIP, CWR22, VCaP) (human, UniProt Q04609 1-750); test: cell-based or functional assay
[4] = target: T2, Human PSMA antigen (human, UniProt Q04609 44-750, limits assumed); test: SPR Biacore, immobilised human PSMA, 37 C, 1:1 fit
T2 construct: This is the antigen immobilised on the Biacore chip; also called FOLH1_HUMAN
Description: as §1

[5] = target: T2, Human PSMA antigen; test: SPR (Biacore), 37 C, antibody over immobilized PSMA
Text: The calculated kinetic parameters derived from SPR are shown in FIG. 4C, showing distinct differences in affinities when compared to the chimeric and the original mouse antibody J591. Increased affinity of anti-PSMA antibodies should translate into higher potency, while lower affinity anti-PSMA antibodies into lower toxicity. This affinity modulation is achieved without altering the CDR sequences. Based on the binding kinetics, the clone having combination of J591_VL-1 and J591_VH-3, which has near identical binding kinetics to those of J591 chimeric antibody, was chosen to build the PSMA-BsAb (BC244) of the present technology. The amino acid sequences of the light chain (SEQ ID NO: 11) and the heavy chain (SEQ ID NO: 12) of the select clone are shown in FIG. 12. Mutation N297A was used to remove glycosylation, and K322A to minimize complement activation.

PSMA on PSMA(+) human prostate cancer cell lines (LNCaP-AR, PC3-PIP, CWR22, VCaP), sequence (Q04609 whole entry): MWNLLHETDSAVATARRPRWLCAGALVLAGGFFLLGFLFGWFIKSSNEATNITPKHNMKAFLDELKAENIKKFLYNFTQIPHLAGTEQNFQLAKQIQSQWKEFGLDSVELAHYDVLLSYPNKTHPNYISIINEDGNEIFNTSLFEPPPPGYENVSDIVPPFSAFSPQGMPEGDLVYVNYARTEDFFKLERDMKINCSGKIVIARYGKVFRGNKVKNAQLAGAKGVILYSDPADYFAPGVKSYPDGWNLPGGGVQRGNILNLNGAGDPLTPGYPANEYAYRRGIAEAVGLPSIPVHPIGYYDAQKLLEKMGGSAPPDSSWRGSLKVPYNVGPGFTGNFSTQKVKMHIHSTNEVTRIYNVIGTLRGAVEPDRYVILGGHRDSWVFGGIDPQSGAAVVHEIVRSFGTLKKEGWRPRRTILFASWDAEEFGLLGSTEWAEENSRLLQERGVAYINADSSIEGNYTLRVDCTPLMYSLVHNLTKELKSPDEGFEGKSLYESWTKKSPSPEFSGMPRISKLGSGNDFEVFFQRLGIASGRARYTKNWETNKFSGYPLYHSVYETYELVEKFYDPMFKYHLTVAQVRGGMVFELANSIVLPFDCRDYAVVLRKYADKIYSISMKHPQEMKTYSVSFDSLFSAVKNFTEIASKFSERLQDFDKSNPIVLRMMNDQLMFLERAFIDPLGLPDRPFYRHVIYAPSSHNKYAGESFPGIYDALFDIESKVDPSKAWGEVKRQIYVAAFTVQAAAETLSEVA
T2 sequence (Q04609 44-750 limits assumed): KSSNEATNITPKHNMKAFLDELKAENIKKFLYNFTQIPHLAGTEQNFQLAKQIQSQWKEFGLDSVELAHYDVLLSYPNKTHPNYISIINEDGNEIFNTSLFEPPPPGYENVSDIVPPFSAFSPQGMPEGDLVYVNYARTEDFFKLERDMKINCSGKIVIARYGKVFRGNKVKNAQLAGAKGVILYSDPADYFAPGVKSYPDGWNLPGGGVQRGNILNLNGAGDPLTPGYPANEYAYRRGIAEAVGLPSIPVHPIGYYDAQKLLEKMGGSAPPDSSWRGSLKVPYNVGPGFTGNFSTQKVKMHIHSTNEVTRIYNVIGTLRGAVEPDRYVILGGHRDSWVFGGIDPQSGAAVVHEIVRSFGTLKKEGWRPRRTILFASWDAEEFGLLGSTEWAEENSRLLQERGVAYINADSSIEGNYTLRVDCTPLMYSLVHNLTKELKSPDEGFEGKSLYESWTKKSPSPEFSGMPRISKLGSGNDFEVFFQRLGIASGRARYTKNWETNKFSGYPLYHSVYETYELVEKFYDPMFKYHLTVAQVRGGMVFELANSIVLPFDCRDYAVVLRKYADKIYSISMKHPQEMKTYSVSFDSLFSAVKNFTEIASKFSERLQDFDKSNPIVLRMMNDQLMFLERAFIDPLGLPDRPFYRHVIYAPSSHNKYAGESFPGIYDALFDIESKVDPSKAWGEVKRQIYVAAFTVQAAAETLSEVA
PSMA on PSMA(+) canine osteosarcoma cell lines (D-17, DSN, DAN, DSDh), sequence (I4IY07 entry or part of it limits assumed): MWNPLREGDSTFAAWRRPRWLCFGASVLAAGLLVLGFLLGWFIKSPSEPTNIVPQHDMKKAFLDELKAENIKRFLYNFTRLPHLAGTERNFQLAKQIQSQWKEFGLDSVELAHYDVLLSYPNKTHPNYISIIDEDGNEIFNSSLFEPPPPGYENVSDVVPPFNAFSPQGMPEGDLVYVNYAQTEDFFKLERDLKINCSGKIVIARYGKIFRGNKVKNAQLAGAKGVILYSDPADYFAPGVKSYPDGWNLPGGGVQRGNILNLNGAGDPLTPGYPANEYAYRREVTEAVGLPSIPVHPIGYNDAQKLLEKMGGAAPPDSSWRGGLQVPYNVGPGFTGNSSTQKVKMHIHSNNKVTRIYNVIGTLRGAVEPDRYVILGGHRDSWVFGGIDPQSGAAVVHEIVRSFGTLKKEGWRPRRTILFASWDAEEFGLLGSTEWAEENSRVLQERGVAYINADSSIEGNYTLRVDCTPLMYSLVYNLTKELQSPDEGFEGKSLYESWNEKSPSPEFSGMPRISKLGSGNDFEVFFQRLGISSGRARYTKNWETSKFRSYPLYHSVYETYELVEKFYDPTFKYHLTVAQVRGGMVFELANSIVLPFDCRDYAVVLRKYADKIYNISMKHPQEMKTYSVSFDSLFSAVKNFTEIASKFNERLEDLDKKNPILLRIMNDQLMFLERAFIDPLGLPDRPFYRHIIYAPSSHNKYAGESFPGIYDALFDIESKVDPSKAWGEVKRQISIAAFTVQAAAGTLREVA

Row | Binder | Kd [1] [nM] | koff [1] [s⁻¹] | kon [1] [M⁻¹ s⁻¹] | t ½ [1] [min] | EC50, ADTC (4-hour 51Cr release), D-17 cells [2] [nM] | EC50, ADTC (4-hour 51Cr release), DAN cells [2] [nM] | EC50, ADTC (4-hour 51Cr release), DSDh cells [2] [nM] | EC50, ADTC (4-hour 51Cr release), DSN cells [2] [nM] | EC50, ADTC (4-hour 51Cr release), LNCaP-AR cells [3] | EC50, ADTC (4-hour 51Cr release), PC3-PIP cells [3] | EC50, ADTC (4-hour 51Cr release), VCaP cells [3] | Kd [4] [nM] | koff [4] [s⁻¹] | kon [4] [M⁻¹ s⁻¹] | t ½ [4] [min] | Kd [5] [nM] | koff [5] [s⁻¹] | kon [5] [M⁻¹ s⁻¹]
1 | B1 | 2.79 | 0.000329 | 118000 | 35.1 | 0.106 | 0.102 | 0.152 | 0.0703 | 0.000761 µg/mL and 3.81 pM | 2.1e-05 µg/mL and 107 fM | 0.0163 µg/mL and 81.7 pM | 1.18 | 0.000162 | 138000 | 71.2 |  |  | 
2 | B2 | 3.71 | 0.000716 | 193000 | 16.1 |  |  |  |  |  |  |  | 1.55 | 0.000196 | 127000 | 58.8 | 0.206 | 1.21e-05 | 58500
3 | B3 | 8.75 | 0.000459 | 52500 | 25.2 |  |  |  |  |  |  |  | 2.9 | 0.000279 | 96200 | 41.3 |  |  | 
4 | B4 | 4.88 | 0.000209 | 42900 | 55.2 |  |  |  |  |  |  |  | 2.15 | 0.00021 | 97500 | 55 |  |  | 
